Results on 62 substances are retold here after patent publication US11260115B1, “Peptides and combination of peptides for use in immunotherapy against CLL and other cancers” (immatics biotechnologies GmbH, priority 2015, dated 2022).

The experiment has as its target HLA-A*02:01 (Homo sapiens, UniProt P04439, D140Y/D185E/D98H/E176V/E277Q/G131W/G231S/I119V/I121R/I166T/I218V/L300P/L318F/N151K/N90K/P208A/P217A/Q86G/Q94H/R138H/R169H/T345S). As to the kind of experiment: MHC binding assay (UV-ligand exchange, β2m ELISA, peptide exchange yield). To be noted: binding to HLA-A*02:01. The essentials:
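Peptide-HLA-A*02:01 complexes formed by UV-mediated exchange of a photocleavable ligand; exchange yield measured by streptavidin-capture ELISA detecting β2m with HRP anti-β2m, TMB read at 450 nm. Refolded monomer standards 15-500 ng/ml; samples diluted 100-fold.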

As for “317 (NLLAHIWAL; listed as Homo sapiens) [compound 317]”, the “Peptide Exchange (MHC class I binding score, peptide exchange yield)” value (from here on “Peptide Exchange”) is recorded as ““+++” (>50 = +++)”. In the case of “115 (LLFDKLYLL; listed as Homo sapiens) [compound 115]” it was ““+++” (>50 = +++)”; in that of “153 (SLLAELHVL; listed as Homo sapiens) [compound 153]”, ““+++” (>50 = +++)”. In the case of “170 (TLTFRVETV; listed as Homo sapiens) [compound 170]” it was ““+++” (>50 = +++)”; in that of “309 (ILYGTQFVL; listed as Homo sapiens) [compound 309]”, ““+++” (>50 = +++)”; in that of “72 (GLLDAGKMYV; listed as Homo sapiens) [compound 72]”, ““+++” (>50 = +++)”. In the case of “39 (FLDALLTDV; listed as Homo sapiens) [compound 39]” it was ““+++” (>50 = +++)”; in that of “233 (GIIDINVRL; listed as Homo sapiens) [compound 233]”, ““++” (>20% = ++)”. As for “270 (TVLPVPPLSV; listed as Homo sapiens) [compound 270]”, the “Peptide Exchange” value was ““+++” (>50 = +++)”. Consider “273 (VLGEYSYLL; listed as Homo sapiens) [compound 273]”, for which the “Peptide Exchange” value is listed as ““+++” (>50 = +++)”. The entry for “173 (TVIENIHTI; listed as Homo sapiens) [compound 173]” is ““++” (>20% = ++)”; for “61 (FVYFIVREV; listed as Homo sapiens) [compound 61]” it is ““+++” (>50 = +++)”. The entry for “295 (ALLQKLQQL; listed as Homo sapiens) [compound 295]” is ““+++” (>50 = +++)”. The entry for “282 (LLRDGIELV; listed as Homo sapiens) [compound 282]” is ““+++” (>50 = +++)”; for “71 (GLKHDIARV; listed as Homo sapiens) [compound 71]” it is ““+++” (>50 = +++)”; for “45 (FLPELPADLEA; listed as Homo sapiens) [compound 45]” it is ““+++” (>50 = +++)”.

As for “145 (SALDTITTV; listed as Homo sapiens) [compound 145]”, the “Peptide Exchange” value was ““+++” (>50 = +++)”. For the substance “224 (AMEALVVEV; listed as Homo sapiens) [compound 224]”, the “Peptide Exchange” value is listed as ““+++” (>50 = +++)”.

For “280 (YTLDSLYWSV; listed as Homo sapiens) [compound 280]”, the “Peptide Exchange” value is listed as ““+++” (>50 = +++)”. On to “60 (FVLDHEDGLNL; listed as Homo sapiens) [compound 60]”, for which the “Peptide Exchange” value is ““+++” (>50 = +++)”. In the case of “217 (ALDEPPYLTV; listed as Homo sapiens) [compound 217]” it was ““+++” (>50 = +++)”. The entry for “109 (KLWEGLTELV; listed as Homo sapiens) [compound 109]” is ““+++” (>50 = +++)”. The entry for “284 (LLSAAEPVPA; listed as Homo sapiens) [compound 284]” is ““++” (>20% = ++)”. For “191 (YIFDGSDGGV; listed as Homo sapiens) [compound 191]”, the “Peptide Exchange” value is listed as ““+++” (>50 = +++)”. The entry for “190 (VVMGTVPRL; listed as Homo sapiens) [compound 190]” is ““+++” (>50 = +++)”. In the case of “199 (YLVELSSLL; listed as Homo sapiens) [compound 199]” it was ““++++” (>75% = ++++)”; in that of “157 (SLNIRDFTM; listed as Homo sapiens) [compound 157]”, ““+++” (>50 = +++)”; in that of “306 (VVAEELENV; listed as Homo sapiens) [compound 306]”, ““++” (>20% = ++)”. The entry for “18 (LLGEFSIKM; listed as Homo sapiens) [compound 18]” is ““+++” (>50 = +++)”; for “333 (VTLEFPQLIRV; listed as Homo sapiens) [compound 333]” it is ““+++” (>50 = +++)”; for “378 (YILGKFFAL; listed as Homo sapiens) [compound 378]” it is ““+++” (>50 = +++)”.

As to “250 (LLVQEPDGLMV; listed as Homo sapiens) [compound 250]”, the “Peptide Exchange” value is listed as ““+++” (>50 = +++)”. In the case of “93 (ILFNTQINI; listed as Homo sapiens) [compound 93]” it was ““+++” (>50 = +++)”; in that of “139 (NLTDVVEKL; listed as Homo sapiens) [compound 139]”, ““+++” (>50 = +++)”. For “51 (FLVEAPHDWDL; listed as Homo sapiens) [compound 51]”, the “Peptide Exchange” value is on record as ““++++” (>75% = ++++)”. The entry for “159 (SLQEEKLIYV; listed as Homo sapiens) [compound 159]” is ““+++” (>50 = +++)”. In the case of “132 (LVYEAIIMV; listed as Homo sapiens) [compound 132]” it was ““+++” (>50 = +++)”.

In the case of “371 (SLADDSVLERL; listed as Homo sapiens) [compound 371]”, the “Peptide Exchange” value is listed as ““+++” (>50 = +++)”. The entry for “365 (LISPLLLPV; listed as Homo sapiens) [compound 365]” is ““+++” (>50 = +++)”; for “189 (VMLEMTPEL; listed as Homo sapiens) [compound 189]” it is ““+++” (>50 = +++)”; for “271 (VIRNIVEAA; listed as Homo sapiens) [compound 271]” it is ““++” (>20% = ++)”. The entry for “274 (VLLEYHIAYL; listed as Homo sapiens) [compound 274]” is ““+++” (>50 = +++)”; for “75 (GLSIFAQDLRL; listed as Homo sapiens) [compound 75]” it is ““++” (>20% = ++)”.

Turning to “119 (VLPAEFFEV; listed as Homo sapiens) [compound 119]”, the “Peptide Exchange” value is ““+++” (>50 = +++)”.

Take “9 (ALCDTLITV; listed as Homo sapiens) [compound 9]”: the “Peptide Exchange” value is given as ““+++” (>50 = +++)”.

For the substance “156 (SLNIGDVQL; listed as Homo sapiens) [compound 156]”, the “Peptide Exchange” value is ““+++” (>50 = +++)”. In the case of “261 (SLVEAQGWLV; listed as Homo sapiens) [compound 261]” it was ““+++” (>50 = +++)”; in that of “347 (YLGPVSPSL; listed as Homo sapiens) [compound 347]”, ““+++” (>50 = +++)”; in that of “181 (VLLSIPFVSV; listed as Homo sapiens) [compound 181]”, ““+++” (>50 = +++)”.

For “346 (VLVQVSPSL; listed as Homo sapiens) [compound 346]”, the “Peptide Exchange” value is reported as ““+++” (>50 = +++)”.

On to “166 (TLDPNQVSL; listed as Homo sapiens) [compound 166]”, for which the “Peptide Exchange” value is recorded as ““++” (>20% = ++)”. The entry for “58 (YIQQGIFSV; listed as Homo sapiens) [compound 58]” is ““+++” (>50 = +++)”; for “169 (TLLLGLTEV; listed as Homo sapiens) [compound 169]” it is ““+++” (>50 = +++)”; for “193 (YLDLSNNRL; listed as Homo sapiens) [compound 193]” it is ““+++” (>50 = +++)”. The entry for “374 (VLSVITEEL; listed as Homo sapiens) [compound 374]” is ““+++” (>50 = +++)”.

For the substance “259 (RLLDEQFAVL; listed as Homo sapiens) [compound 259]”, the “Peptide Exchange” value is reported as ““+++” (>50 = +++)”. In the case of “66 (SLAGGLDDMKA; listed as Homo sapiens) [compound 66]” it was ““+++” (>50 = +++)”; in that of “340 (KLLEEICNL; listed as Homo sapiens) [compound 340]”, ““++++” (>75% = ++++)”. In the case of “121 (RLYEITIEV; listed as Homo sapiens) [compound 121]” it was ““++++” (>75% = ++++)”. The entry for “302 (ILQDLTFVHL; listed as Homo sapiens) [compound 302]” is ““+++” (>50 = +++)”; for “13 (VVDGMPPGV; listed as Homo sapiens) [compound 13]” it is ““+++” (>50 = +++)”; for “279 (YMAPEVVEA; listed as Homo sapiens) [compound 279]” it is ““+++” (>50 = +++)”.
